Experimental data reported in patent US20250032576A1, “CNP Therapy” (BIOMARIN PHARMACEUTICAL INC., priority 2021, published 2025).
Where a chain is given by its changes, count along the chain named. Where two headings read alike, the source gives them in different places. No end group written: not given here.

B1: His552Arg: NPR2 protein-altering variant, expression construct transfected into HEK293 cells (protein)
chain: RNLTLAVVLPEHNLSYAWAWPRVGPAVALAVEALGRALPVDLRFVSSELEGACSEYLAPLSAVDLKLYHDPDLLLGPGCVYPAASVARFASHWRLPLLTAGAVASGFSAKNDHYRTLVRTGPSAPKLGEFVVTLHGHFNWTARAALLYLDARTDDRPHYFTIEGVFEALQGSNLSVQHQVYAREPGGPEQATHFIRANGRIVYICGPLEMLHEILLQAQRENLTNGDYVFFYLDVFGESLRAGPTRATGRPWQDNRTREQAQALREAFQTVLVITYREPPNPEYQEFQNRLLIRAREDFGVELGPSLMNLIAGCFYDGILLYAEVLNETIQEGGTREDGLRIVEKMQGRRYHGVTGLVVMDKNNDRETDFVLWAMGDLDSGDFQPAAHYSGAEKQIWWTGRPIPWVKGAPPSDNPPCAFDLDDPSCDKTPLSTLAIVALGTGITFIMFGVSSFLIFRKLMLEKELASMLWRIRWEELQFGNSERYHKGAGSRLTLSLRGSSYGSLMTAHGKYQIFANTGHFKGNVVAIKRVNKKRIELTRQVLFELKHMRDVQFNHLTRFIGACIDPPNICIVTEYCPRGSLQDILENDSINLDWMFRYSLINDLVKGMAFLHNSIISSHGSLKSSNCVVDSRFVLKITDYGLASFRSTAEPDDSHALYAKKLWTAPELLSGNPLPTTGMQKADVYSFGIILQEIALRSGPFYLEGLDLSPKEIVQKVRNGQRPYFRPSIDRTQLNEELVLLMERCWAQDPAERPDFGQIKGFIRRFNKEGGTSILDNLLLRMEQYANNLEKLVEERTQAYLEEKRKAEALLYQILPHSVAEQLKRGETVQAEAFDSVTIYFSDIVGFTALSAESTPMQVVTLLNDLYTCFDAIIDNFDVYKVETIGDAYMVVSGLPGRNGQRHAPEIARMALALLDAVSSFRIRHRPHDQLRLRIGVHTGPVCAGVVGLKMPRYCLFGDTVNTASRMESNGQALKIHVSSTTKDALDELGCFQLELRGDVEMKGKGKMRTYWLLGERKGPPGLL
B2: Arg776Trp: NPR2 protein-altering variant, expression construct transfected into HEK293 cells (protein)
chain: B1 chain with R530H, R754W
B3: Thr907Met: NPR2 protein-altering variant, expression construct transfected into HEK293 cells (protein)
chain: B1 chain with R530H, T885M
B4: Ala59Thr: NPR2 protein-altering variant, expression construct transfected into HEK293 cells (protein)
chain: B1 chain with A37T, R530H
B5: Glu359Ala: NPR2 protein-altering variant, expression construct transfected into HEK293 cells (protein)
chain: B1 chain with E337A, R530H
B6: Thr377Asn: NPR2 protein-altering variant, expression construct transfected into HEK293 cells (protein)
chain: B1 chain with T355N, R530H
B7: Lys367Glu: NPR2 protein-altering variant, expression construct transfected into HEK293 cells (protein)
chain: B1 chain with K345E, R530H
B8: Arg263His: NPR2 protein-altering variant, expression construct transfected into HEK293 cells (protein)
chain: B1 chain with R241H, R530H

How the values were obtained:
plasma NTproCNP = conditions: short non Ach children starting daily HGH, day 21; cited from earlier work
[1] = test system: lumbar vertebral nppc expression, plasma NTproCNP; conditions: cited from earlier work
NPR2 = test: cGMP catchpoint assay of NPR2 variants in transfected HEK293 cells treated with 20 nM CNP; format: cell-based; parameters: key to Lable: loss-of-function (LoF); Gain-of-function (GoF); conditions: for average phenotype: cGMP normalized to RedLuciferase and to WT = 1, HEK293, 20 nM CNP, 0.4 nM IBMX, at least 3 repeat experiments with 4 replicates each; for Lable: high-confidence variant class
Protocol: Described herein is an in-vitro assay (cGMP) to assess the activities of >260 NPR2 variants. NPR2 protein-altering variants have been identified in the UK Biobank study and described in Estrada et al. (Nat Commun. 2021 12 (1): 2224). NPR2-expression constructs were transfected into HEK293 cells and 3 days later cells were treated with […] IBMX and 20 nM CNP in serum-free DMEM prior to measuring cGMP levels. The cGMP catchpoint ELISA competition assay (Molecular Devices) was used to measure cGMP according to manufacturer recommendations. RedLuc was used as a transfection control (FIG. 8A).
The NPR2 alpha-fold structure was obtained from a recent alpha-fold publication (Jumper et al., Nature 596:583-589 (2021)). A list of phenotypically characterized “high-confidence” variants was generated (Table 4). Phenotype is calculated by determining levels of cGMP using a standard curve. This value to normalized to RedLuciferase (transfection control). This value is further normalized by setting WT to 1. Average value is calculated from at least 3 repeat experiments with 4 replicates each.

Molecule	average phenotype (NPR2)	Lable (NPR2)	further results
Human Growth Hormone [Human Growth Hormone (HGH)]			increase in NTproCNP, delta (plasma NTproCNP): 22%; increase in NTproCNP, mean (plasma NTproCNP): 11 pmol/L
CNP 53: active 53-amino acid peptide generated from pro-CNP by furin cleavage (DLRVDTKSRAAWARLLQEHPNARKYKGANKKGLSKGCFGLKLDRIGSMSGLGC; ends and bridges not checked; cysteine pairing not given here; UniProt P23582 74-126, looked up)			lumbar vertebral nppc expression ([1]; 3 days continuous high dose intravenous infusion): significantly reducing; plasma NTproCNP ([1]; females (n=6)): small decline; plasma NTproCNP ([1]; male rats (n=6)): did not reduce
B1	1.794	GoF	
B2	0.01312	LoF	
B3	0.01456	LoF	
B4	3.735	GoF	
B5	2.998	GoF	
B6	0.01062	LoF	
B7	0.01438	LoF	
B8	1.863	GoF	
